Results reported in article PMC9457330 (Proceedings of the National Academy of Sciences of the …, 2022).

Molecular target: the molecule itself
Assay: native gel or EMSA

B1: SLC25A11 (endogenous, mouse) (natural protein, UniProt Q9CR62 1-314, looked up)
chain: MAATASPGAGRMDGKPRTSPKSVKFLFGGLAGMGATVFVQPLDLVKNRMQLSGEGAKTREYKTSFHALTSILKTEGLKGIYTGLSAGLLRQATYTTTRLGIYTVLFERLTGADGTPPGFLLKALIGMTAGATGAFVGTPAEVALIRMTADGRLPADQRRGYKNVFNALVRIAREEGVPTLWRGCIPTMARAVVVNAAQLASYSQSKQFLLDSGYFSDNILCHFCASMISGLVTTAASMPVDIVKTRIQNMRMIDGKPEYKNGLDVLLKVVRYEGFFSLWKGFTPYYARLGPHTVLTFIFLEQMNKAYKRLFLSG
- stoichiometry N: 2
